B1: H_N20: microbial HemG protoporphyrinogen oxidase, SEQ ID NO:2 (SEQ ID NO:12 lacking start methionine) (protein, listed as Pantoea ananatis)
chain: MKALILFSTRDGQTQKIASAIADEIKGQQSCDVINIQDAKTLDWQQYDRVLIGASIRYGHFQPVVNEFVKHNLLALQQRVSGFFSVNLTARKPEKRSPETNAYTVKFLAQSPWQPDCCAVFAGALYYPRYRWFDRVMIQFIMRMTGGETDASKEVEYTDWQQVQRFARDFAQLPGKSY
B2: H_N30: microbial HemG protoporphyrinogen oxidase, SEQ ID NO:5 (SEQ ID NO:14 lacking start methionine) (protein, listed as Erwinia toletana)
chain: MKALILFSSREGQTREIASYIANSIKEEMECDVFNILRVEQIDWSQYDRVLIGGSIHYGHFHPAVAKFVKRHLHELQQRSSGFFCVNLTARKADKRTPQTNAYMRKFLLQSPWQPDCCAVFAGALRYTRYRWFDRVMIQLIMRMTGGETDTSKEVEYTDWTQVARFAQEFAHLPGKTQ

Tests used:
soybean plantlets = experiment: High-throughput soybean screening for herbicide tolerance (plantlets); assay type: in vivo, soybean (A3555); parameters: key: 0 for poor tolerance, high damage, low green coloration; 1 for some tolerance, average damage, moderate green coloration; 2 for good tolerance, low damage, high green coloration; details: S-3100 spray five weeks post-transformation, scored day four
Description: A high-throughput plant transformation and screening method was used to evaluate large numbers of constructs in transgenic plants for herbicide tolerance in early transformation plantlet tissue. This allowed for faster and higher volume screening of construct configurations and PPO enzymes.
This permitted the side-by-side comparison of seven different HemG PPO enzymes with thirty-seven different targeting peptides using the same promoter and 3′UTR elements for gene expression. These plant transformation constructs were used to transform soybean excised embryos (germplasm A3555) using A. tumefaciens and standard methods known in the art. Four hundred explants were inoculated for each construct resulting in twelve containers per construct. A sterile PPO herbicide solution was used for herbicide tolerance testing. The herbicide solution consisted of 0.3 g of S-3100 in crop oil concentrate (5.0 mL) and 495 mL of deionized water. This was filtered through a 0.45 micron Nalgene® Rapid-Flow™ Tissue Culture Filter Unit and Surfactant-Free Cellulose Acetate membrane filter unit (VWR, Radnor, PA, USA). The resulting sterile solution was shaken before application.
At five weeks post-transformation, four of the twelve plant containers per construct were sprayed with two passes of the sterile PPO herbicide solution. The treated plantlets were then enclosed in the container and received at least 15 hours of light exposure post spray each day for four days. At the end of day four post application of S-3100, the treated plantlets were photographed and scored on a visual scale of green coloration (green coloration was representative of healthy photosynthetic plant tissue as compared to photo-bleached tissue) versus damage. The scoring values were 0 for poor tolerance, high damage, low green coloration; 1 for some tolerance, average damage, moderate green coloration; and 2 for good tolerance, low damage, high green coloration. The scoring for each construct is presented in Table 9, where n.d. indicates the analysis was not conducted.

R0 soybean plants = experiment: R0 transgenic soybean herbicide tolerance at eleven weeks; assay type: in vivo; details: R0 plants sprayed with S-3100 at eleven weeks, rated seven days after treatment
Procedure: The plantlets in the non-sprayed containers corresponding to constructs having a score of 2 were transplanted at approximately 7 weeks post transformation and grown as R0 plants using standard methods known in the art. Plantlets corresponding to non-tolerant scores of 0 and 1 were also grown to serve as negative controls. The R0 plants were grown in a greenhouse under long-day nursery conditions (18 hr light at 80° F. then 6 hr dark at 74° F.) for approximately four weeks. At eleven weeks, the R0 plants were sprayed with two passes of the same herbicide solution (0.3 g of 5-3100) described above. Herbicide injury ratings were collected seven days after treatment.
The results of the herbicide tolerance application at eleven weeks to the R0 plants confirmed the low percent injury rating scores observed in the high-throughput screen at five weeks. Any injury rating of 30% or above was equivalent to non-transgenic soybean injury ratings. A few of the constructs stood out as providing very good tolerance to the herbicide application. […] Data are provided in Table 10, where n.d. indicates the analysis was not conducted.

Molecule	coloration score (soybean plantlets; TP9)	coloration score (soybean plantlets; TP11)	coloration score (soybean plantlets; TP12)	coloration score (soybean plantlets; TP13)	coloration score (soybean plantlets; TP15)	coloration score (soybean plantlets; TP17)	coloration score (soybean plantlets; TP18)	coloration score (soybean plantlets; TP19)	coloration score (soybean plantlets; TP24)	coloration score (soybean plantlets; TP26)	coloration score (soybean plantlets; TP27)	coloration score (soybean plantlets; TP28)	coloration score (soybean plantlets; TP29)	coloration score (soybean plantlets; TP33)	percent injury score (R0 soybean plants; TP15)	other results
B1	1	1	2	2	1	2	1	1	1	1	1	1	1	1	30%	coloration score (soybean plantlets; TP14): 0; coloration score (soybean plantlets; TP16): 1; coloration score (soybean plantlets; TP20): 2; coloration score (soybean plantlets; TP21): 0; coloration score (soybean plantlets; TP22): 1; coloration score (soybean plantlets; TP23): 1; coloration score (soybean plantlets; TP25): 1; coloration score (soybean plantlets; TP30): 1; coloration score (soybean plantlets; TP31): 1; coloration score (soybean plantlets; TP32): 0; percent injury score (R0 soybean plants; TP12): 20%; percent injury score (R0 soybean plants; TP13): 20%; percent injury score (R0 soybean plants; TP17): 25%; percent injury score (R0 soybean plants; TP20): 20%; percent injury score (R0 soybean plants; TP29): 30%
B2	1	1	1	1	1	1	0	0	1	0	0	0	1	1	35%	coloration score (soybean plantlets; TP10): 0; percent injury score (R0 soybean plants; TP1): 5%; percent injury score (R0 soybean plants; TP9): 35%; percent injury score (R0 soybean plants; TP11): 35%; percent injury score (R0 soybean plants; TP26): 35%

— patent publication US12123009B2, “Methods and compositions for PPO herbicide tolerance in plants” (Monsanto Technology LLC, priority 2015, dated 2024)
